Test [1] addresses T1, yHsp70 (yeast, UniProt P10591 1-642, 5-(and-6)-carboxyfluorescein coupled (in the analytical ultracentrifugation)). Put plainly: SPR. In general terms: Surface plasmon resonance follows binding to a sensor surface in real time, without labels.
For test [2], the target named is T1, yHsp70. Put plainly: AUC.
A further test concerns the target yHsp90 (yeast, UniProt P02829 1-709). Put plainly: SPR.
The next test deals with hHsp90 (human, UniProt P08238 1-724). The test is described as follows: SPR.
Chain of hHsp90 (P08238 whole entry): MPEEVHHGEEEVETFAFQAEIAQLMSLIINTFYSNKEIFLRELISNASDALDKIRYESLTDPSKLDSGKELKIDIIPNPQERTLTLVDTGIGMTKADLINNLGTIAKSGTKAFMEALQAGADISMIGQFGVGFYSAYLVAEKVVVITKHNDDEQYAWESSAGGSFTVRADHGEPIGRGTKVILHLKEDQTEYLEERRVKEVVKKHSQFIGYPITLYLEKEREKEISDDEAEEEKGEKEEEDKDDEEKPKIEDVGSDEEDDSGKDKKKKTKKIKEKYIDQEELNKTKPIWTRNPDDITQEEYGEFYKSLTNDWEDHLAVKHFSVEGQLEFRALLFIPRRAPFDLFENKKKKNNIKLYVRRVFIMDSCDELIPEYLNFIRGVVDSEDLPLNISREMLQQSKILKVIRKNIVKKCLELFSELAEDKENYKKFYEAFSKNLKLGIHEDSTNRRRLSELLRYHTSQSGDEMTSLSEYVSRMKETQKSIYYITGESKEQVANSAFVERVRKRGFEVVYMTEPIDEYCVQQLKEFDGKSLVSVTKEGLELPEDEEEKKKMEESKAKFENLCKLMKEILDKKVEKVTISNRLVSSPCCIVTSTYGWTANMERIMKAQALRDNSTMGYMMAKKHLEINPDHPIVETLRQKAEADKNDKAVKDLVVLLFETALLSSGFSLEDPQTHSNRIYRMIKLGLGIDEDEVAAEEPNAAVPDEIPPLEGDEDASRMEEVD

T1 sequence (P10591 whole entry): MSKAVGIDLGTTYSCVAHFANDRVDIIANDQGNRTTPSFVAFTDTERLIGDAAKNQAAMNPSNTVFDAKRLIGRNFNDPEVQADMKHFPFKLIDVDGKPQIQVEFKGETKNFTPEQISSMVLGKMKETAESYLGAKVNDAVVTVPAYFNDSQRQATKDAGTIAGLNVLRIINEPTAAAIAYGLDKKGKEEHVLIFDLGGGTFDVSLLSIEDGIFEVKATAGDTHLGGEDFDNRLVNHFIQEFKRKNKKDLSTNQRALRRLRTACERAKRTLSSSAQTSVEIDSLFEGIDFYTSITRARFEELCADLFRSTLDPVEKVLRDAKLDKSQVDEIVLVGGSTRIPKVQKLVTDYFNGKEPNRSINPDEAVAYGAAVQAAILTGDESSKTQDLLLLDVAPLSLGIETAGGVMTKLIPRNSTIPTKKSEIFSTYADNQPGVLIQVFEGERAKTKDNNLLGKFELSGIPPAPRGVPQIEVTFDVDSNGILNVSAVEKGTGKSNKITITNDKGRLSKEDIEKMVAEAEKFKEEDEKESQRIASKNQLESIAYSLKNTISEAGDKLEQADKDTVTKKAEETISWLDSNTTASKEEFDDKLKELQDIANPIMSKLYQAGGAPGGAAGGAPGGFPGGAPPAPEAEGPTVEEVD
Chain of yHsp90 (P02829 whole entry): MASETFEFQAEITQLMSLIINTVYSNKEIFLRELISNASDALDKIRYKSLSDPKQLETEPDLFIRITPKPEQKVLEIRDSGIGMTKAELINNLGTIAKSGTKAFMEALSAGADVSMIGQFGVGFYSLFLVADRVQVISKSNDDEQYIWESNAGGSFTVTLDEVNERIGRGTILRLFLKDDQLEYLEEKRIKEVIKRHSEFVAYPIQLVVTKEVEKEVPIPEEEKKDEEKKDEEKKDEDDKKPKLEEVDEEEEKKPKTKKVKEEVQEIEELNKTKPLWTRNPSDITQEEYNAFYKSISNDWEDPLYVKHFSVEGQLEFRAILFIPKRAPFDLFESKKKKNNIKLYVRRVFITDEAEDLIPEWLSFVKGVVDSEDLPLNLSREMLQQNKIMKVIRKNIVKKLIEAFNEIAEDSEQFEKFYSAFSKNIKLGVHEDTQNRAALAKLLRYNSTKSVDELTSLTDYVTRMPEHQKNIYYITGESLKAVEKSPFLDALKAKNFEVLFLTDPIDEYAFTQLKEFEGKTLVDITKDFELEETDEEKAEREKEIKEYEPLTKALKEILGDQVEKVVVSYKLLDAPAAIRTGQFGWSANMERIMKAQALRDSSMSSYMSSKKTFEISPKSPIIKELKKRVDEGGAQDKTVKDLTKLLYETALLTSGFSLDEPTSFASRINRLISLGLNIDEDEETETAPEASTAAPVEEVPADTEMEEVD

B1: Hop S16E (natural protein)
chain: not shown
B1: the binding result in the test with yHsp70 [1] was “binds”.

B2: Hop Y354E (natural protein)
chain: not shown
In the case of B2, in the test with yHsp70 [1], the “fold increase in KD against the wild type” value is about 2 fold.

B3: Sti1 (natural protein)
chain: MSLTADEYKQQGNAAFTAKDYDKAIELFTKAIEVSETPNHVLYSNRSACYTSLKKFSDALNDANECVKINPSWSKGYNRLGAAHLGLGDLDEAESNYKKALELDASNKAAKEGLDQVHRTQQARQAQPDLGLTQLFADPNLIENLKKNPKTSEMMKDPQLVAKLIGYKQNPQAIGQDLFTDPRLMTIMATLMGVDLNMDDINQSNSMPKEPETSKSTEQKKDAEPQSDSTTSKENSSKAPQKEESKESEPMEVDEDDSKIEADKEKAEGNKFYKARQFDEAIEHYNKAWELHKDITYLNNRAAAEYEKGEYETAISTLNDAVEQGREMRADYKVISKSFARIGNAYHKLGDLKKTIEYYQKSLTEHRTADILTKLRNAEKELKKAEAEAYVNPEKAEEARLEGKEYFTKSDWPNAVKAYTEMIKRAPEDARGYSNRAAALAKLMSFPEAIADCNKAIEKDPNFVRAYIRKATAQIAVKEYASALETLDAARTKDAEVNNGSSAREIDQLYYKASQQRFQPGTSNETPEETYQRAMKDPEVAAIMQDPVMQSILQQAQQNPAALQEHMKNPEVFKKIQTLIAAGIIRTGR
Turning to B3, the binding result with yHsp70 [2] and with hHsp90 was “binds” throughout. Further, in the test with yHsp90, the “fold stronger binding than to hHsp90” value was about 2 fold.

B4: Sti1 S410E (natural protein)
chain: MSLTADEYKQQGNAAFTAKDYDKAIELFTKAIEVSETPNHVLYSNRSACYTSLKKFSDALNDANECVKINPSWSKGYNRLGAAHLGLGDLDEAESNYKKALELDASNKAAKEGLDQVHRTQQARQAQPDLGLTQLFADPNLIENLKKNPKTSEMMKDPQLVAKLIGYKQNPQAIGQDLFTDPRLMTIMATLMGVDLNMDDINQSNSMPKEPETSKSTEQKKDAEPQSDSTTSKENSSKAPQKEESKESEPMEVDEDDSKIEADKEKAEGNKFYKARQFDEAIEHYNKAWELHKDITYLNNRAAAEYEKGEYETAISTLNDAVEQGREMRADYKVISKSFARIGNAYHKLGDLKKTIEYYQKSLTEHRTADILTKLRNAEKELKKAEAEAYVNPEKAEEARLEGKEYFTKEDWPNAVKAYTEMIKRAPEDARGYSNRAAALAKLMSFPEAIADCNKAIEKDPNFVRAYIRKATAQIAVKEYASALETLDAARTKDAEVNNGSSAREIDQLYYKASQQRFQPGTSNETPEETYQRAMKDPEVAAIMQDPVMQSILQQAQQNPAALQEHMKNPEVFKKIQTLIAAGIIRTGR
Regarding B4, the “fold increase in KD against the wild type” value with yHsp70 [1] is about 2 fold.

B5: Sti1 S258E (natural protein)
chain: MSLTADEYKQQGNAAFTAKDYDKAIELFTKAIEVSETPNHVLYSNRSACYTSLKKFSDALNDANECVKINPSWSKGYNRLGAAHLGLGDLDEAESNYKKALELDASNKAAKEGLDQVHRTQQARQAQPDLGLTQLFADPNLIENLKKNPKTSEMMKDPQLVAKLIGYKQNPQAIGQDLFTDPRLMTIMATLMGVDLNMDDINQSNSMPKEPETSKSTEQKKDAEPQSDSTTSKENSSKAPQKEESKESEPMEVDEDDEKIEADKEKAEGNKFYKARQFDEAIEHYNKAWELHKDITYLNNRAAAEYEKGEYETAISTLNDAVEQGREMRADYKVISKSFARIGNAYHKLGDLKKTIEYYQKSLTEHRTADILTKLRNAEKELKKAEAEAYVNPEKAEEARLEGKEYFTKSDWPNAVKAYTEMIKRAPEDARGYSNRAAALAKLMSFPEAIADCNKAIEKDPNFVRAYIRKATAQIAVKEYASALETLDAARTKDAEVNNGSSAREIDQLYYKASQQRFQPGTSNETPEETYQRAMKDPEVAAIMQDPVMQSILQQAQQNPAALQEHMKNPEVFKKIQTLIAAGIIRTGR
With B5, in the test with yHsp70 [1], the binding result was “binds”.

B6: Sti1 S227E (natural protein)
chain: MSLTADEYKQQGNAAFTAKDYDKAIELFTKAIEVSETPNHVLYSNRSACYTSLKKFSDALNDANECVKINPSWSKGYNRLGAAHLGLGDLDEAESNYKKALELDASNKAAKEGLDQVHRTQQARQAQPDLGLTQLFADPNLIENLKKNPKTSEMMKDPQLVAKLIGYKQNPQAIGQDLFTDPRLMTIMATLMGVDLNMDDINQSNSMPKEPETSKSTEQKKDAEPQEDSTTSKENSSKAPQKEESKESEPMEVDEDDSKIEADKEKAEGNKFYKARQFDEAIEHYNKAWELHKDITYLNNRAAAEYEKGEYETAISTLNDAVEQGREMRADYKVISKSFARIGNAYHKLGDLKKTIEYYQKSLTEHRTADILTKLRNAEKELKKAEAEAYVNPEKAEEARLEGKEYFTKSDWPNAVKAYTEMIKRAPEDARGYSNRAAALAKLMSFPEAIADCNKAIEKDPNFVRAYIRKATAQIAVKEYASALETLDAARTKDAEVNNGSSAREIDQLYYKASQQRFQPGTSNETPEETYQRAMKDPEVAAIMQDPVMQSILQQAQQNPAALQEHMKNPEVFKKIQTLIAAGIIRTGR
As for B6, the binding result with yHsp70 [1] is “binds”.

B7: Sti1 S95E (natural protein)
chain: MSLTADEYKQQGNAAFTAKDYDKAIELFTKAIEVSETPNHVLYSNRSACYTSLKKFSDALNDANECVKINPSWSKGYNRLGAAHLGLGDLDEAEENYKKALELDASNKAAKEGLDQVHRTQQARQAQPDLGLTQLFADPNLIENLKKNPKTSEMMKDPQLVAKLIGYKQNPQAIGQDLFTDPRLMTIMATLMGVDLNMDDINQSNSMPKEPETSKSTEQKKDAEPQSDSTTSKENSSKAPQKEESKESEPMEVDEDDSKIEADKEKAEGNKFYKARQFDEAIEHYNKAWELHKDITYLNNRAAAEYEKGEYETAISTLNDAVEQGREMRADYKVISKSFARIGNAYHKLGDLKKTIEYYQKSLTEHRTADILTKLRNAEKELKKAEAEAYVNPEKAEEARLEGKEYFTKSDWPNAVKAYTEMIKRAPEDARGYSNRAAALAKLMSFPEAIADCNKAIEKDPNFVRAYIRKATAQIAVKEYASALETLDAARTKDAEVNNGSSAREIDQLYYKASQQRFQPGTSNETPEETYQRAMKDPEVAAIMQDPVMQSILQQAQQNPAALQEHMKNPEVFKKIQTLIAAGIIRTGR
For B7, the binding result with yHsp70 [2] was “binds”.

B8: Sti1 T37E (natural protein)
chain: MSLTADEYKQQGNAAFTAKDYDKAIELFTKAIEVSEEPNHVLYSNRSACYTSLKKFSDALNDANECVKINPSWSKGYNRLGAAHLGLGDLDEAESNYKKALELDASNKAAKEGLDQVHRTQQARQAQPDLGLTQLFADPNLIENLKKNPKTSEMMKDPQLVAKLIGYKQNPQAIGQDLFTDPRLMTIMATLMGVDLNMDDINQSNSMPKEPETSKSTEQKKDAEPQSDSTTSKENSSKAPQKEESKESEPMEVDEDDSKIEADKEKAEGNKFYKARQFDEAIEHYNKAWELHKDITYLNNRAAAEYEKGEYETAISTLNDAVEQGREMRADYKVISKSFARIGNAYHKLGDLKKTIEYYQKSLTEHRTADILTKLRNAEKELKKAEAEAYVNPEKAEEARLEGKEYFTKSDWPNAVKAYTEMIKRAPEDARGYSNRAAALAKLMSFPEAIADCNKAIEKDPNFVRAYIRKATAQIAVKEYASALETLDAARTKDAEVNNGSSAREIDQLYYKASQQRFQPGTSNETPEETYQRAMKDPEVAAIMQDPVMQSILQQAQQNPAALQEHMKNPEVFKKIQTLIAAGIIRTGR
B8: in the test with yHsp70 [1], the binding result is “binds”.

Values taken from PMC4328751 (EMBO Reports, 2014).
